The results in this text go back to PMC4682967.

For data set [1], the system named is scFv-Fc_(CH3A) of W-VT (K409W). Put plainly: non-reducing SDS-PAGE of coexpressed chains; scFv-Fc_(CH3A) and Fc_(CH3B) cotransfected at equivalent molar ratio in HEK293F, Protein A purified from supernatant after 6 days; heterodimer and homodimers told apart by mass, band intensities by ImageJ. To be noted: other: non-reducing SDS-PAGE of coexpressed chains.
For data set [2], the target named is human neonatal Fc receptor (FcRn) (human) (UniProt P55899). Put plainly: SPR; human FcRn coated on the chip at approximately 1,000 response units; serially diluted Fc proteins applied; pH 6.0; mean ± SD of two independent experiments, at least 5 data sets each. On the technique in general: SPR reads the build-up and loss of mass on a sensor chip optically.
Data set [3] relates to scFv-Fc_(CH3A) of A146_(w/o W-VT) (K370D). Put plainly: non-reducing SDS-PAGE of coexpressed chains; scFv-Fc_(CH3A) and Fc_(CH3B) cotransfected at equivalent molar ratio in HEK293F, Protein A purified from supernatant after 6 days; heterodimer and homodimers told apart by mass, band intensities by ImageJ. The following applies: other: non-reducing SDS-PAGE of coexpressed chains.

Data set [4] concerns scFv-Fc_(CH3A) of B135 and B168 (D399L/K409W). The description is as above. The following applies: other: non-reducing SDS-PAGE of coexpressed chains.
In data set [5] the test system is scFv-Fc_(CH3A) of A109_(w/o W-VT) (K370M). Described as above. To be noted: other: non-reducing SDS-PAGE of coexpressed chains.
The subject of data set [6] is scFv-Fc_(CH3A) of B239 (K392L/D399L). Described as above. The following applies: other: non-reducing SDS-PAGE of coexpressed chains.
Data set [7] concerns scFv-Fc_(CH3A) of A146 (K370D/K409W). Described as above. To be noted: other: non-reducing SDS-PAGE of coexpressed chains.
Data set [8] has as its system scFv-Fc_(CH3A) of B240 (K392S/K409R/D399L). The description is as above. The following applies: other: non-reducing SDS-PAGE of coexpressed chains.
Data set [9] concerns scFv-Fc_(CH3A) of B212 (K392I/D399L). Described as above. The following applies: other: non-reducing SDS-PAGE of coexpressed chains.
The subject of data set [10] is scFv-Fc_(CH3A) of A109 (K370M/K409W). The description is as above. The following applies: other: non-reducing SDS-PAGE of coexpressed chains.
In data set [11] the test system is scFv-Fc_(CH3A) of B215 (K392R/K409R/D399L). The description is as above. The following applies: other: non-reducing SDS-PAGE of coexpressed chains.
The test system of data set [12] is scFv-Fc_(CH3A) of B256 (K392N/D399L). The data set is described as above. The following applies: other: non-reducing SDS-PAGE of coexpressed chains.
The subject of data set [13] is scFv-Fc_(CH3A) of A107 and A108 (K370E/K409W). Described as above. The following applies: other: non-reducing SDS-PAGE of coexpressed chains.
Data set [14] relates to scFv-Fc_(CH3A) of B121 (D399E/K409W). The data set is described as above. The following applies: other: non-reducing SDS-PAGE of coexpressed chains.
The subject of data set [15] is scFv-Fc_(CH3A) of B235 (K392C/D399L). The description is as above. To be noted: other: non-reducing SDS-PAGE of coexpressed chains.
Data set [16] deals with scFv-Fc_(CH3A) of A210 (E357A/S364Y/K370E). The description is as above. The following applies: other: non-reducing SDS-PAGE of coexpressed chains.
The test system of data set [17] is scFv-Fc_(CH3A) of A216 (E357G/S364W/K370E). Described as above. The following applies: other: non-reducing SDS-PAGE of coexpressed chains.
Data set [18] deals with scFv-Fc_(CH3A) of A107_(w/o W-VT) (K370E). The description is as above. To be noted: other: non-reducing SDS-PAGE of coexpressed chains.
Data set [19] concerns scFv-Fc_(CH3A) of A241 (E357N/S364W/K370E). The data set is described as above. The following applies: other: non-reducing SDS-PAGE of coexpressed chains.
Data set [20] relates to scFv-Fc_(CH3A) of B168_(w/o W-VT) (D399L). Described as above. To be noted: other: non-reducing SDS-PAGE of coexpressed chains.
For data set [21], the system named is scFv-Fc_(CH3A) of A205 (E357D/S364W/K370E). The description is as above. To be noted: other: non-reducing SDS-PAGE of coexpressed chains.

On to Fc_(CH3B) of W-VT (D399V/F405T), for which, in data set [1], the heterodimer yield (%) was found to be 60.8%.

In the case of “wild-type human IgG1 Fc homodimer (Fc-WT) (domain or fragment)”, in data set [2], the dissociation constant Kd (usually the free concentration of one partner at which half of the binding sites on the other are occupied at equilibrium, for simple one-to-one binding) amounted to 35.6 nM; the koff (usually a measure of how fast the partners let go of each other) turned out to be 5.83e-05 s⁻¹; the kon (usually the second-order rate constant of association) was 1640 M⁻¹ s⁻¹.

With Fc_(CH3B) of A146_(w/o W-VT) (E357M), the heterodimer yield (%) in data set [3] was 71%.

With “Fc_(CH3B) of B168 (K392G/K409M/D399V/F405T)”, the heterodimer yield (%) in [4] was found to be 77.7%.

“Fc_(CH3B) of A109_(w/o W-VT) (E357M/S364W)”: the heterodimer yield (%) in data set [5] is 61.6%.

Regarding Fc_(CH3B) of B239 (D399S/K392G/K409M), the heterodimer yield (%) in data set [6] stood at 76.3%.

For Fc_(CH3B) of A146 (E357M/D399V/F405T), in data set [7], the heterodimer yield (%) was 74.5%.

Consider “Fc_(CH3B) of B212 and B240 (D399G/K392G/K409M)”, for which the figures for the heterodimer yield (%) in data set [8] and in data set [9] were 83.3% and 65.3%, respectively.

As to “Fc_(CH3B) of A109 (E357M/S364W/D399V/F405T)”, the heterodimer yield (%) in [10] came to 90.5%.

On to Fc_(CH3B) of B215 (D399W/K392G/K409M), for which the heterodimer yield (%) in data set [11] was found to be 78.1%.

As to “Fc_(CH3B) of B135 (K392S/K409L/D399V/F405T)”, the heterodimer yield (%) in data set [4] stood at 67.8%.

Regarding Fc_(CH3B) of B256 (D399V/K392G/K409M), in data set [12], the heterodimer yield (%) was 79.4%.

Consider Fc_(CH3B) of A107 (E357N/D399V/F405T), for which the heterodimer yield (%) in data set [13] stood at 93.4%.

Regarding “Fc_(CH3B) of A108 (E357I/S364T/D399V/F405T)”, in [13], the heterodimer yield (%) was 70.5%.

With Fc_(CH3B) of B121 (K392E/D399V/F405T), in data set [14], the heterodimer yield (%) turned out to be 73.3%.

Fc_(CH3B) of B235 (D399C/K392G/K409M): the heterodimer yield (%) in data set [15] amounted to 89.4%.

For the substance Fc_(CH3B) of A210 (E357N/K370H), the heterodimer yield (%) in data set [16] came to 80.8%.

Regarding “Fc_(CH3B) of A107_(w/o W-VT), A216 and A241 (E357N)”, the heterodimer yield (%) was 80.3% in data set [17], 78.2% in [18] and 81% in data set [19].

For “Fc_(CH3B) of B168_(w/o W-VT) (K392G/K409M)”, the heterodimer yield (%) in data set [20] came to 60.9%.

With Fc_(CH3B) of A205 (E357N/K370R), the heterodimer yield (%) in data set [21] was 88.8%.
